Experimental findings from publication PMC8813930, “The toposiomerase IIIalpha-RMI1-RMI2 complex orients human Bloom’s syndrome helicase for efficient disruption of D-loops” are described below.

The target in series [1] is T1, BLM-dWH (Homo sapiens, UniProt P54132 642-1077). In words: fluorescence anisotropy; no ATP; 5 mM MgCl2; 50 mM Tris-HCl pH 7.5, 50 mM NaCl, 1 mM DTT, 5 mM MgCl2, 50 µg/mL BSA, 25 °C; 10 nM labeled DNA in direct titrations. The following applies: protein: recombinant; label: 3'-fluorescein; single strand. On the technique in general: In fluorescence polarisation assays a small probe gives low polarisation when free and higher when bound to something large.

Series [2] concerns the target T2, BLMFL (Homo sapiens, UniProt P54132 1-1417). The description is as above. Conditions: protein: recombinant; label: 3'-fluorescein; single strand.
In series [3] the target is T3, BLMCR (Homo sapiens, UniProt P54132 642-1290). The description is as above. The following applies: protein: recombinant; label: 3'-fluorescein; single strand.
Series [4] has as its target T4, BLM-dH (Homo sapiens, UniProt P54132 642-1191). The description is as above. Conditions: protein: recombinant; label: 3'-fluorescein; single strand.
The target of series [5] is T1, BLM-dWH. In words: competition fluorescence anisotropy; vs ss54-FLU; 5 mM MgCl2; 50 mM Tris-HCl pH 7.5, 50 mM NaCl, 1 mM DTT, 5 mM MgCl2, 50 µg/mL BSA, 25 °C; 10 nM labeled DNA in direct titrations. The following applies: protein: recombinant, label: 5'-Cy3 on D3.
Series [6] deals with T2, BLMFL. The series is described as above. The following applies: protein: recombinant, label: 5'-Cy3 on D3.
For series [7], the target named is T3, BLMCR. The description is as above. Conditions: protein: recombinant, label: 5'-Cy3 on D3.
Series [8] has as its target T4, BLM-dH. The series is described as above. The following applies: protein: recombinant, label: 5'-Cy3 on D3.
Series [9] addresses TOPOIIIalpha (TRR complex);RMI1 (TRR complex);RMI2 (TRR complex) (Homo sapiens;Homo sapiens;Homo sapiens, UniProt Q13472;Q9H9A7;Q96E14 1-1001;1-625;1-147, ||). Description: fluorescence anisotropy; 5 mM MgCl2; 50 mM Tris-HCl pH 7.5, 50 mM NaCl, 1 mM DTT, 5 mM MgCl2, 50 µg/mL BSA, 25 °C; 10 nM labeled DNA in direct titrations. The following applies: protein: recombinant;recombinant;recombinant, tags: His;;, copies: 1;1;1, label: fluorescein on D3 (in place of Cy3).

The mark [10] stands for this setting: three-stranded D-loop-like structure (D1+D2+D3), D3 3' part invades and pairs with D1.
Where [11] appears, read: four-stranded D-loop-like structure (D1+D2+D3+D4), D3 3' part pairs with D1, 5' part with D4.
Where [12] appears, read: 20 bp duplex, 3' overhang 21 nt on D3.

T1 sequence (P54132 642-1077): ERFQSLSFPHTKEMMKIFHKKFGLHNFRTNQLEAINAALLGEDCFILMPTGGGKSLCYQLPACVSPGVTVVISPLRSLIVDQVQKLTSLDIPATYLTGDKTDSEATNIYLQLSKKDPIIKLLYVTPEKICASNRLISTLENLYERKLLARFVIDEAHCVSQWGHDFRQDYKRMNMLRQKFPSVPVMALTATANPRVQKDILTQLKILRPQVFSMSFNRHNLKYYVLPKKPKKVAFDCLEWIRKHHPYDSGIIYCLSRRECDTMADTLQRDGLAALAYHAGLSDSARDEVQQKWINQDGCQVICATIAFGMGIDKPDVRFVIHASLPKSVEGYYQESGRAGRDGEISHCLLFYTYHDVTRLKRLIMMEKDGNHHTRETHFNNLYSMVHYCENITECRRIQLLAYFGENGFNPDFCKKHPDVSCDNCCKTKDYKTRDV
T4 sequence (P54132 642-1191): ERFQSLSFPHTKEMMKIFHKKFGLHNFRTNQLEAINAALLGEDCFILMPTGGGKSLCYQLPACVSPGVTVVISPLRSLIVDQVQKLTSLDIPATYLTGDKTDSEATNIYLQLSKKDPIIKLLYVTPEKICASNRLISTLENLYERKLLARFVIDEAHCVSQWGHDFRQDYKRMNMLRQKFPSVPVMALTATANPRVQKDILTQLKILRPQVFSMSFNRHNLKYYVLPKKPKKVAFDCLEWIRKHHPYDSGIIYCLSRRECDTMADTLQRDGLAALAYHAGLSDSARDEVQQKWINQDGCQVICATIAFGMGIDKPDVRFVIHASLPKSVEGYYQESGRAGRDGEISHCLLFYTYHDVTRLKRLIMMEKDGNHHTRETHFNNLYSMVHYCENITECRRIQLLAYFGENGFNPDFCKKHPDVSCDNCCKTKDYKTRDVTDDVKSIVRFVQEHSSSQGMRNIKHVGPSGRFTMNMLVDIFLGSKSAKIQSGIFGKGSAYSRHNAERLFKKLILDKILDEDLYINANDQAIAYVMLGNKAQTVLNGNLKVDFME
T2 sequence (P54132 whole entry): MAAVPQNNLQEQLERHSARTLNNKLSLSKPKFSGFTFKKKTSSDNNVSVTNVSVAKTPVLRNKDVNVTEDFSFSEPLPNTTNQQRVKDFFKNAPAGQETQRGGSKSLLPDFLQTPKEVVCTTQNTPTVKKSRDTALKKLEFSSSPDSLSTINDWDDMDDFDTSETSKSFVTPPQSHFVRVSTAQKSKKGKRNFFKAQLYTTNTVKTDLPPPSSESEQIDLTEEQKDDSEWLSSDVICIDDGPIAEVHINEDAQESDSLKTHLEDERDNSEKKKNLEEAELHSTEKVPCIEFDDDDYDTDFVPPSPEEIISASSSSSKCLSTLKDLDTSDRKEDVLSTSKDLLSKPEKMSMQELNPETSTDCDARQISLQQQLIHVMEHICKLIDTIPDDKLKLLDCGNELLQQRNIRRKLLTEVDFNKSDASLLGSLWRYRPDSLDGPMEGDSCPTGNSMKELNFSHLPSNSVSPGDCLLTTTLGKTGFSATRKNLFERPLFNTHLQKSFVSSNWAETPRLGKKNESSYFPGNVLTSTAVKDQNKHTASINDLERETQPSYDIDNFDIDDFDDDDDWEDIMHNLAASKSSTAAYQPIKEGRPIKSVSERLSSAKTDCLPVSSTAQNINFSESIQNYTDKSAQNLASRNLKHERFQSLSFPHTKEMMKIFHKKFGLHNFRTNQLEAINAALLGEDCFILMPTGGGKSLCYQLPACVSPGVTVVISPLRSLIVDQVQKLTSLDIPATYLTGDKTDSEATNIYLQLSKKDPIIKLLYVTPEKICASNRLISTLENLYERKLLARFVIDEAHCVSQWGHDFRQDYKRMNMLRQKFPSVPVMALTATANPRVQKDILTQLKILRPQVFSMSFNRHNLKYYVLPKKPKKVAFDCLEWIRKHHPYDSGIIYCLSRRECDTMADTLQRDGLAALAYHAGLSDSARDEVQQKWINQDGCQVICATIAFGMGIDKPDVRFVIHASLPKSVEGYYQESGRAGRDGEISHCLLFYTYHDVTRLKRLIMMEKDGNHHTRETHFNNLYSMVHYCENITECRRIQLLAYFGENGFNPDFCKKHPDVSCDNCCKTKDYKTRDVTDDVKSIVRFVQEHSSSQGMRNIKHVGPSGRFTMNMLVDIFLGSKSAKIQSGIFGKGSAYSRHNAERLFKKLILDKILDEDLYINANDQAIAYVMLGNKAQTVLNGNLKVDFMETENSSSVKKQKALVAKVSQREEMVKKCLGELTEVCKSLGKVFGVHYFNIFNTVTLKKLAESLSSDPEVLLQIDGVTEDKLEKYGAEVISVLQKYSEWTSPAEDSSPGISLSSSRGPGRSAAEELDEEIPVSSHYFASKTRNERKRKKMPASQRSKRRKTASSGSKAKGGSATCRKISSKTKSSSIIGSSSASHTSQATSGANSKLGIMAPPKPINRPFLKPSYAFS
T3 sequence (P54132 642-1290): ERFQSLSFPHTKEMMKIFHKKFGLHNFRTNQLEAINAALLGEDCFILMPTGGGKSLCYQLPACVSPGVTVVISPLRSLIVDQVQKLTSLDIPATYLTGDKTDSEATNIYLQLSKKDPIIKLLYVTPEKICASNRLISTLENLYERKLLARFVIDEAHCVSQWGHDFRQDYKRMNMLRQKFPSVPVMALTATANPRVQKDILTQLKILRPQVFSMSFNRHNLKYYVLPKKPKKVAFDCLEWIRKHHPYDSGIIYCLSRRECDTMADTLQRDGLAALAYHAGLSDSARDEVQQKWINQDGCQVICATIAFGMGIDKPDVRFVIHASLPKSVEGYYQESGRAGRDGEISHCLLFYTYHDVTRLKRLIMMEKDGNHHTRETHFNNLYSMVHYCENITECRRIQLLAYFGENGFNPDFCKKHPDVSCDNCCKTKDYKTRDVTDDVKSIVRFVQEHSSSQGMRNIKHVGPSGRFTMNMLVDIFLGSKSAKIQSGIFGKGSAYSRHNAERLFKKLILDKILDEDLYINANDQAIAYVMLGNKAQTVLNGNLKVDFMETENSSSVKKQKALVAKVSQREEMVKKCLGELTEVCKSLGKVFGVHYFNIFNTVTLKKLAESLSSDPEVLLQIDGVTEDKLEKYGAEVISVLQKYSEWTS
Chain of TOPOIIIalpha (TRR complex);RMI1 (TRR complex);RMI2 (TRR complex) (Q13472 whole entry, chain 1 of 3): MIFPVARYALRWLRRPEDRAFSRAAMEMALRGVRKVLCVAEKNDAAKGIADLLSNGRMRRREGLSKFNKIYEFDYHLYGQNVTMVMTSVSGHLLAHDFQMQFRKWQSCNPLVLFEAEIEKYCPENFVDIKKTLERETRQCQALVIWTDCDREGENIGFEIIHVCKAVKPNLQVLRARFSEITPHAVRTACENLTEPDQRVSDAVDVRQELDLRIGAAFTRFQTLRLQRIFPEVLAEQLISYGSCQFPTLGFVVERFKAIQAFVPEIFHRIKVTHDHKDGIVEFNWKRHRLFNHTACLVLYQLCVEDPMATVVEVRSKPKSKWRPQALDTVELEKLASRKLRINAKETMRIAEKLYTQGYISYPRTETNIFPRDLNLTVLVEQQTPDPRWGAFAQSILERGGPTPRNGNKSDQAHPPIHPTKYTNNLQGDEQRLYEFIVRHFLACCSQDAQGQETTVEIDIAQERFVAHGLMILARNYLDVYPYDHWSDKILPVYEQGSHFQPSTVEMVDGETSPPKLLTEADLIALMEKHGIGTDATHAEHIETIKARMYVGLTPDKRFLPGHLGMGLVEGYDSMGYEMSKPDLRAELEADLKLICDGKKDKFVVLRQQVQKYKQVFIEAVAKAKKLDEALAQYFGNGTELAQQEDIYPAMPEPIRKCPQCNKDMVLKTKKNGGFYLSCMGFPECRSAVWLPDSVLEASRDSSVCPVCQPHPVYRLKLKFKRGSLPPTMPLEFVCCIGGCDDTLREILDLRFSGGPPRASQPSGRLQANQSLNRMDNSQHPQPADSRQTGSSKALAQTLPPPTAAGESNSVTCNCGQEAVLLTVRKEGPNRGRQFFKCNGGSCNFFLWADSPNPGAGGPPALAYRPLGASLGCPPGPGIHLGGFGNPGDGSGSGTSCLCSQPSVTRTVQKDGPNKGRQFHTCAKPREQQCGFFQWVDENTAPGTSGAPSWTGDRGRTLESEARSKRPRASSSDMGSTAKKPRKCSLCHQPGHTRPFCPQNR
Chain of TOPOIIIalpha (TRR complex);RMI1 (TRR complex);RMI2 (TRR complex) (Q9H9A7 whole entry, chain 2 of 3): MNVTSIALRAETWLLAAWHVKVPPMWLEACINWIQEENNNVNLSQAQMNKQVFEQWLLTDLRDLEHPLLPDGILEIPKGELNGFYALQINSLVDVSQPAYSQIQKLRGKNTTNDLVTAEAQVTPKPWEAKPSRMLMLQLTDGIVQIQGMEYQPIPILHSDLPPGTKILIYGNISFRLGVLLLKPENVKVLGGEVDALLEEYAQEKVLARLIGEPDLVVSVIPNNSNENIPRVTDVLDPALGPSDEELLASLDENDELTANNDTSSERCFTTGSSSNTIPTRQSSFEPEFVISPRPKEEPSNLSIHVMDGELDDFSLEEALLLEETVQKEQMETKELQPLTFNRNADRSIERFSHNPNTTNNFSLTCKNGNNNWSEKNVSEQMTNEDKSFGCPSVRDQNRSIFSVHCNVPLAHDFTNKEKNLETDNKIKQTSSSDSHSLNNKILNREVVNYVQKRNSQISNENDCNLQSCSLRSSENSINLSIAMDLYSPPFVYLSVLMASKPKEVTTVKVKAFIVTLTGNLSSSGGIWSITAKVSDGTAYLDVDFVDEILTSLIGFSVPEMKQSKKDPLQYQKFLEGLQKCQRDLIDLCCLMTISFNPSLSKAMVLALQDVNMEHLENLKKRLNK
Chain of TOPOIIIalpha (TRR complex);RMI1 (TRR complex);RMI2 (TRR complex) (Q96E14 whole entry, chain 3 of 3): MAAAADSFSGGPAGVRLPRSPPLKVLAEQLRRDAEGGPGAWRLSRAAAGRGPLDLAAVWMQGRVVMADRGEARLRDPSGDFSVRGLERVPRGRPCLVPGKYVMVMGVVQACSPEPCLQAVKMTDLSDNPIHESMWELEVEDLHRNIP

B1: ss54-FLU (ssDNA)
DNA: TCCTTTTGATAAGAGGTCATTTTTGCGGATGGCTTAGAGCTTAATTGCGCAACG
The Kd is the free concentration of one partner at which half of the binding sites on the other are occupied at equilibrium, for simple one-to-one binding. For B1, the Kd turned out to be 520 ± 30 nM in [1], 61 ± 10 nM in series [2], 74 ± 14 nM in [3] and 61 ± 16 nM in series [4].

B2: DL3 (Cy3) (structured_DNA)
DNA 1: GACGCTGCCGAATTCTACCAGTGCCTTGCTAGGACATCTTTGCCCACCTGCAGGTTCACCC
DNA 2: GGGTGAACCTGCAGGTGGGCGGCTGCTCATCGTAGGTTAGTTGGTAGAATTCGGCAGCGTC
DNA 3: TAAGAGCAAGATGTTCTATAAAAGATGTCCTAGCAAGGCAC
In the case of B2, the Kd was 56 ± 7 nM in series [5] (setting [10]), 1.2 ± 0.8 nM in series [6] (setting [10]), less than 1 nM in series [7] (setting [10]) and less than 1 nM in series [8] (setting [10]).

B3: DL4 (Cy3) (structured_DNA)
DNA 1: GACGCTGCCGAATTCTACCAGTGCCTTGCTAGGACATCTTTGCCCACCTGCAGGTTCACCC
DNA 2: GGGTGAACCTGCAGGTGGGCGGCTGCTCATCGTAGGTTAGTTGGTAGAATTCGGCAGCGTC
DNA 3: TAAGAGCAAGATGTTCTATAAAAGATGTCCTAGCAAGGCAC
DNA 4: TATAGAACATCTTGCTCTTA
For the molecule B3, the Kd is 56 ± 13 nM in series [5] (setting [11]), 2.3 ± 1.3 nM in series [6] (setting [11]), less than 1 nM in [7] (setting [11]) and less than 1 nM in series [8] (setting [11]).

B4: 3T (Cy3) (dsDNA)
DNA 1: TAAGAGCAAGATGTTCTATAAAAGATGTCCTAGCAAGGCAC
DNA 2: TATAGAACATCTTGCTCTTA
For B4, the Kd came out at 430 ± 70 nM in [5] (setting [12]), 10 ± 3 nM in [6] (setting [12]), 24 ± 2 nM in [7] (setting [12]) and 39 ± 3 nM in series [8] (setting [12]).

B5: DL4 (fluorescein) (structured_DNA)
DNA 1: GACGCTGCCGAATTCTACCAGTGCCTTGCTAGGACATCTTTGCCCACCTGCAGGTTCACCC
DNA 2: GGGTGAACCTGCAGGTGGGCGGCTGCTCATCGTAGGTTAGTTGGTAGAATTCGGCAGCGTC
DNA 3: TAAGAGCAAGATGTTCTATAAAAGATGTCCTAGCAAGGCAC
DNA 4: TATAGAACATCTTGCTCTTA
Take B5: the dissociation constant Kd in series [9] (four-stranded D-loop-like structure (D1+D2+D3+D4)) was 488 ± 70 nM.

B6: DL3 (fluorescein) (structured_DNA)
DNA 1: GACGCTGCCGAATTCTACCAGTGCCTTGCTAGGACATCTTTGCCCACCTGCAGGTTCACCC
DNA 2: GGGTGAACCTGCAGGTGGGCGGCTGCTCATCGTAGGTTAGTTGGTAGAATTCGGCAGCGTC
DNA 3: TAAGAGCAAGATGTTCTATAAAAGATGTCCTAGCAAGGCAC
With B6, the Kd in series [9] (three-stranded D-loop-like structure (D1+D2+D3)) amounted to 13 ± 1 nM.
